Test [1] has as its target T1, recombinant human LAG3 (Sino Biological Inc.) (human, UniProt P18627 23-450).
T1 construct: Bought recombinant protein; also called CD223; biotinylated recombinant human LAG3
T1 sequence (looked up): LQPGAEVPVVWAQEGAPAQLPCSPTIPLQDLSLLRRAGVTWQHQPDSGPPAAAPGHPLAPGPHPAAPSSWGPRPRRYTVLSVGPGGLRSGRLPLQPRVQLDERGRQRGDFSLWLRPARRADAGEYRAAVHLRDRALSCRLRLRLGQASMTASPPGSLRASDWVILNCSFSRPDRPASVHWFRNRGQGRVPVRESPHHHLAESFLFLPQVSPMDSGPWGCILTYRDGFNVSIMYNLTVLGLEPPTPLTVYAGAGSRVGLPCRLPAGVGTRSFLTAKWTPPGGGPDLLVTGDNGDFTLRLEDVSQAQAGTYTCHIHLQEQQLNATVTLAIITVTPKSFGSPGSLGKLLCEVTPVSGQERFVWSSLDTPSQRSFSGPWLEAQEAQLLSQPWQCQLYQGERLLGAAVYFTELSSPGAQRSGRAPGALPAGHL
As to the kind of experiment: phage panning and monoclonal phage ELISA on recombinant human LAG3. Here is the method: We have recently constructed a large (size, 10¹¹) phage-display naïve human Fab library with peripheral blood B cells from about 30 healthy individuals according to the previously published protocols (de Haard et al., J Biol Chem 1999, 274: 18218-18230). This library was used for selection of antibodies against recombinant human LAG3 conjugated to magnetic beads (Dynabeads M-270 epoxy; DYNAL Inc.) as described previously (Zhu et al., J Virol 2006, 80:891-899) except that we used 5, 1 and 0.1 μg of antigen in the first, second and third round of panning, respectively. Clones that bound to the antigen were identified from the third round of biopanning by using monoclonal phage ELISA as described (Zhu et al., J Virol 2006, 80:891-899).
A general note: In an ELISA, binding on a coated surface is turned into a signal by an enzyme label.

The target in test [2] is T2, LAG3 of the Promega LAG3-MHCII Blockade Bioassay Kit (Cat. No.: CS194802) (UniProt P18627 23-525, limits assumed).
T2 sequence (looked up): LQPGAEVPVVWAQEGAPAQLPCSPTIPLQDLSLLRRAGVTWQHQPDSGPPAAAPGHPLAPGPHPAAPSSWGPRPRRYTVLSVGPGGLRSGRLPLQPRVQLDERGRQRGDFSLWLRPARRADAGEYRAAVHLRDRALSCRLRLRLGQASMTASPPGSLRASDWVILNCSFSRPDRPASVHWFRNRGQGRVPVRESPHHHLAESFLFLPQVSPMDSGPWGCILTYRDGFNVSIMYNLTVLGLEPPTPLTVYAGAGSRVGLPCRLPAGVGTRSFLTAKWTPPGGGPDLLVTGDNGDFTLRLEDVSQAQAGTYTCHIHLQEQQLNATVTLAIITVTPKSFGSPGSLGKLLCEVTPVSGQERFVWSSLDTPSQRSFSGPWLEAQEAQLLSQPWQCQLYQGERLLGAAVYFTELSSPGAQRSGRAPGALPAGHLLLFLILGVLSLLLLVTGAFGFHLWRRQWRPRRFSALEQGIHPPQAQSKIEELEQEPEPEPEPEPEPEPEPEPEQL
As to the kind of experiment: cell-based or functional assay.

Test [3] deals with T1, recombinant human LAG3 (Sino Biological …). As to the kind of experiment: ELISA, recombinant human LAG3 coated, IgG detected by anti-human IgG (Fc-specific)-HRP. Here is the method:
ELISA was performed according to standard protocols. Briefly, recombinant human LAG3 (Sino Biological Inc.) was coated on Corning EIA/RIA high-binding 96-well plates (Corning Inc.) at 50 ng per well overnight at 4° C. and blocked with 3% nonfat milk in PBS (pH7.4). Fivefold serially diluted antibodies were added and incubated at room temperature for 2 h. The plates were washed with PBS containing 0.05% Tween 20. Bound Fab and IgG antibodies were detected by HRP-conjugated anti-FLAG tag antibody and HRP-conjugated anti-human IgG (Fe-specific) antibody (Sigma-Aldrich), respectively. The assay was developed at room temperature with TMB substrate (Sigma-Aldrich) and monitored at 450 nm with a microplate reader. The half-maximal binding (EC₅₀) was calculated by fitting the data to the Langmuir adsorption isotherm. DNV3 IgG1 and IgG4 were cloned into the plasmid vectors pDin1 and pDin4, respectively. They were expressed and purified from transiently transfected 293 freestyle cell cultures with a yield of […]. In ELISA, both DNV3 IgG1 and IgG4 bound to recombinant human LAG3 with an EC₅₀ of approximately 0.5 nM (FIG. 5).

B1: DNV4 Fab (Fab, V domains shown)
VH: EVQLVQSGAEVKKPGSSVKVSCKASGGTFSSYAISWVRQAPGQGLEWMGGIIPIFGTANYAQKFQGRVTITADESTSTAYMELSSLRSEDTAVYYCAREKPTGGYYGMDVWGKGTLVTVSS
VL: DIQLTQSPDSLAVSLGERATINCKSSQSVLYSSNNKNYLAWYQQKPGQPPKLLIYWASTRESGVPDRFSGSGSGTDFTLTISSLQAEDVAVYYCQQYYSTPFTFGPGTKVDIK
notes: Human Fab from a phage library, hexahistidine-tagged, detected through a FLAG tag, made in E. coli HB2151
Consider B1, for which the binding result in test [1] is “binds”.

B2: DNV2 Fab (Fab, V domains shown)
VH: EVQLVQSGAEVKKPGASVKVSCKASGGTFSSYTISWVRQAPGQGLEWMGGIIPIFGTANYAQKFQGRVTITADKSTSTAYMELSSLRSEDTAVYYCARDPVFDYWGQGTLVTVSS
VL: DIQLTQSPSSLSASVGDRVTITCRASQNIGTYLNWYQQKPGKAPKLLIYAASSLQSGVPSRFSGSGSGTDFTLTISSLQPEDFATYYCQQLNSYPITFGQGTRLEIK
notes: as for B1
For B2, in test [1], the binding result is listed as “binds”.

B3: DNV7 Fab (Fab, V domains shown)
VH: EVQLVESGAEVKKPGSSVKVSCKASGGTFSSYAISWVRQAPGQGLEWMGGIIPIFGTANYAQKFQGRVTITADKSTSTAYMELSSLRSEDTAVYYCALDGKSGFDLAFDIWGQGTMVTVSS
VL: DIQLTQSPSSLSASVGDRVTITCRASRRISSYLNWYQQKQGKAPQLLIYAASSLQSGVPSRFSGSGSGTEFTLTISSLQPEDFATYYCQQFNSYPLTFGGGTKVEIK
notes: as for B1
Consider B3, for which the binding result in test [1] is recorded as “binds”.

B4: DNV3 IgG4 (antibody)
heavy: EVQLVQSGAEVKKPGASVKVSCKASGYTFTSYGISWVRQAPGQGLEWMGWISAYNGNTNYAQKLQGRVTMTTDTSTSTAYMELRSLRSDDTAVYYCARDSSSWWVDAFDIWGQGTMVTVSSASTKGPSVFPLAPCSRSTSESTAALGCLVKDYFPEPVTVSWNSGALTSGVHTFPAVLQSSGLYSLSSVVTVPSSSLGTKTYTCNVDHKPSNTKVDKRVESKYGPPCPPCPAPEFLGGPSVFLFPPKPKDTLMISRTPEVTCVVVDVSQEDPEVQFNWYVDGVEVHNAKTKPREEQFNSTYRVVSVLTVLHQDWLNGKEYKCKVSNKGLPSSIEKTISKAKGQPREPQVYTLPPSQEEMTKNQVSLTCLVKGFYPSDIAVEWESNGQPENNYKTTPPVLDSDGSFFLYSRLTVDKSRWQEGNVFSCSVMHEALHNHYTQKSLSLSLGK
light: QSVLTQPPSVSAAPGQKVTISCSGSTSNIAINYVSWYQQVPGTVPKLLIYDDDKRPSGIPDRFSGSKSGTSATLDISGLQTGDEAHYYCGVWDNSLLAVLFGGGTSLTVLGQPKAAPSVTLFPPSSEELQANKATLVCLISDFYPGAVTVAWKADSSPVKAGVETTTPSKQSNNKYAASSYLSLTPEQWKSHRSYSCQVTHEGSTVEKTVAPTECS
notes: Human IgG4 made in 293FS cells; also called original DNV3 IgG4
One may read the EC50 as the midpoint of the concentration-response curve. For B4, the “T cell activation, EC50” value in test [2] came out at 8.7 nM. Also, the half-maximal effective concentration (EC50) in test [3] is about 0.5 nM.

B5: DNV3 IgG1 (antibody)
heavy: not shown
light: QSVLTQPPSVSAAPGQKVTISCSGSTSNIAINYVSWYQQVPGTVPKLLIYDDDKRPSGIPDRFSGSKSGTSATLDISGLQTGDEAHYYCGVWDNSLLAVLFGGGTSLTVLGQPKAAPSVTLFPPSSEELQANKATLVCLISDFYPGAVTVAWKADSSPVKAGVETTTPSKQSNNKYAASSYLSLTPEQWKSHRSYSCQVTHEGSTVEKTVAPTECS
notes: Human IgG1 made in 293FS cells
For the molecule B5, the EC50 in test [3] is about 0.5 nM.

For the origin of these results see patent US20210115135A1 (ZHEJIANG SHIMAI PHARMACEUTICAL, published 2021).
